Key:
Test in all cases: fluorescence polarisation; titration: 5-FAM-labeled protein at 0.5 or 1 μM titrated with unlabeled protein; 20°C; analysis buffer (20 mM NaH2PO4, 50 mM NaCl, 1 mM DTT pH 7); single site binding model
[1] = target: PfEMP1 ATS of variant PFF0845c, fluorescently labeled (H159C) (P. falciparum)
[2] = target: KAHRP K2, fluorescently labeled (C414A/C450A) (P. falciparum)
[3] = target: PfEMP1 Acidic Terminal Segment (ATS) of variant PF08_0141, fluorescently labeled (Q150C) (P. falciparum)

Chain of spectrin β chain domains 10–14 (P11277 1272-1804): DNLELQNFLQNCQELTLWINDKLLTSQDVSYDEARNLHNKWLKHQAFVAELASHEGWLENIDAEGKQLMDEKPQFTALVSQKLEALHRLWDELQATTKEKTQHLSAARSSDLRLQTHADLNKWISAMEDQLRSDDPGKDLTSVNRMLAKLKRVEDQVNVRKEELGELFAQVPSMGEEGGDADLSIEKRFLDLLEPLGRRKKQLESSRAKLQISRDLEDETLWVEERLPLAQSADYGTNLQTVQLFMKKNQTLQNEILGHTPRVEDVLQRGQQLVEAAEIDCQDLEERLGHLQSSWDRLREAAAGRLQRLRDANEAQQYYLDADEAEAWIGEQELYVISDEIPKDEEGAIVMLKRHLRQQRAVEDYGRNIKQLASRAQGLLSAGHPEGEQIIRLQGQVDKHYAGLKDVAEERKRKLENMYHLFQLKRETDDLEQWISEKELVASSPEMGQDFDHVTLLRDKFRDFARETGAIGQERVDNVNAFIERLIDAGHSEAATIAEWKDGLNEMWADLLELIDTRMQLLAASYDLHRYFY
Chain of α spectrin construct spanning domains 17 to the protein C-terminus (P02549 1704-2395): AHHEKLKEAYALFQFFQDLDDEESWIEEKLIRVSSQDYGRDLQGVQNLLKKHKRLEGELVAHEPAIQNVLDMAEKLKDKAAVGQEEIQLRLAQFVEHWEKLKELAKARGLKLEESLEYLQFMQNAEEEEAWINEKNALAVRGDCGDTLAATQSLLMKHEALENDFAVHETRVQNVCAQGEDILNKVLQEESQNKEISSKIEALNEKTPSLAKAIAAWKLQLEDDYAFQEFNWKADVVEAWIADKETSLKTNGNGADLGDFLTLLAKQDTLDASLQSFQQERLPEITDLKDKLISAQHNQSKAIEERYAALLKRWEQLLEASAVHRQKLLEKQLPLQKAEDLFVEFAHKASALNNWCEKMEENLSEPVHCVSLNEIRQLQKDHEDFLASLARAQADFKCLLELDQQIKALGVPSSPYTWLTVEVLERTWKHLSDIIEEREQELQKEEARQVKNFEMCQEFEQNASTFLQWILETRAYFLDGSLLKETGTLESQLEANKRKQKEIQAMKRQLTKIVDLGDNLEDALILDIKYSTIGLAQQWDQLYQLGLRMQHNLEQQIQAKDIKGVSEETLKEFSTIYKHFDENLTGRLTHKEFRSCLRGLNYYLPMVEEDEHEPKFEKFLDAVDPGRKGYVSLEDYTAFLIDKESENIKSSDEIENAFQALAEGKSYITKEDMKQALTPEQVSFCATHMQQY
Chain of spectrin α chain domains 12–16 (P02549 1174-1716): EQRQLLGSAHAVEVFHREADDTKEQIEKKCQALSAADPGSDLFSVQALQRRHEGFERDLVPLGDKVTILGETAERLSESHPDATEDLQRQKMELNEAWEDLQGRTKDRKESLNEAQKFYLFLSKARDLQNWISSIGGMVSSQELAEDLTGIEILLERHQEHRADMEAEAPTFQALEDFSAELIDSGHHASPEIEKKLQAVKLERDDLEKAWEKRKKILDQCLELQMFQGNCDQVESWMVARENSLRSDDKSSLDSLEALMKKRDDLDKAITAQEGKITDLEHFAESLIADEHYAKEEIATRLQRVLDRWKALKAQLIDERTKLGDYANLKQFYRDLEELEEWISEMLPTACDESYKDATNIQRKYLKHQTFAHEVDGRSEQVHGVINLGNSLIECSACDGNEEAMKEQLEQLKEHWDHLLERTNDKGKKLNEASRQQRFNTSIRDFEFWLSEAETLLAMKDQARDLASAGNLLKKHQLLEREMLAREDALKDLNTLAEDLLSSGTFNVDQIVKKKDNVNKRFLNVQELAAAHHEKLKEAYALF
Chain of spectrin α chain domain 17 (P02549 1704-1828): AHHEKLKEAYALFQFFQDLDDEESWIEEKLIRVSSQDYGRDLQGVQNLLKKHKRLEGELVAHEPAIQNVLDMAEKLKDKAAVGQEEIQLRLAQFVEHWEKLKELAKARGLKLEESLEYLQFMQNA

| Substance | Kd [2] | other results |
| --- | --- | --- |
| spectrin α chain domain 17 (from UniProt P02549 1704-1828) (domain or fragment) | – | Kd [1]: 24 µM |
| spectrin α chain domains 12–16 (from UniProt P02549 1174-1716) (domain or fragment) | 160 µM | – |
| spectrin β chain domains 10–14 (from UniProt P11277 1272-1804) (domain or fragment) | 50 µM | – |
| α spectrin construct spanning domains 17 to the protein C-terminus (from UniProt P02549 1704-2395) (domain or fragment) | – | Kd [3]: 59 µM |
